Values quoted from earlier work, collected in patent US20060275806.
Like-named read-outs stand apart in the source and are kept apart here.

Legend:
[1] = system: MDBP2 (methylated DNA binding protein 2); settings: method not given
MLL MT domain = settings: method not given

Substance: DNA with single fully methylated CpG
- Kd ([1]; 5mC at CpG, both strands, error 0.08 nM): 2.7 nM

Substance: non-specific DNA
- Kd ([1]; error 46.8 nM): 189 nM

Substance: unmethylated CpG DNA
- Kd (MLL MT domain): 33 nM
